{
  "source": "patent US20220296683A1",
  "about": "“ORAL DELIVERY SYSTEM” (University College Dublin, priority 2019, published 2022)",
  "test": "Circular dichroism of secondary structure of SiNP-released peptide",
  "type": "physicochemical",
  "details": "CD",
  "description": "The behaviour of insulin-SiNPs and exenatide-SiNPs in biologically-relevant buffers depended on media pH and salinity. Both constructs aggregated in PBS, while remaining colloidally-stable in simulated small intestinal fluid (SIF) at pH 6.3 (Supplementary FIGS. 18, 19 for insulin-SiNPs and exenatide-SiNPs, respectively). PBS was used to measure the concentration of the released peptide, while SIF was used to examine secondary structure. For insulin-SiNPs (˜300 nm in diameter, particle concentration of 0.2 mg/mL), release was measured by HPLC in simulated gastric fluid (SGF) at pH 2.3, SIF at pH 6.3, and PBS at pH 7.4. […] Exenatide-SiNP dissolved in PBS in a size-dependent fashion: particles of ˜90 nm in diameter dissolved within 60 min at a particle concentration 0.2 mg/mL, while ˜200 nm diameter particles took over 3 h (Supplementary FIG. 20a). […] Parameters used were as follows: • Measurement window: 200-300 nm. • Data pitch: 0.5 nm • Band width: 2 nm • Response: 4 sec • Scanning speed 50 nm/min • Number of runs in measurement (accumulation): 8 • Temperature: Room temperature (20° C.) Insulin, L-arg solutions, mixtures and insulin core and SiNPs were measured at appropriate concentration in an ultra-low volume (1=1 mm) cuvette and at appropriate concentrations. […]",
  "data": [
    {"substance": "released exenatide: exenatide released from exenatide-SiNPs in PBS", "values": [
      {"measurement": "secondary structure of released peptide vs free peptide", "result": "comparable to that of the free peptide"}
    ]}
  ]
}
